Measurements published in patent US20210122797A1.

Molecular target: GLP-1 receptor (on pancreatic islets of C57BL/6J mice) (mouse (islets from C57BL/6J mice)) (UniProt O35659)

Insulin Secretion ng/islet/hour (glucose-stimulated insulin secretion, 16.7 mM glucose + 10 nM peptide) (ng/islet/hour): 5.4
Substance: glucagon like peptide-1 (GLP-1) (ligand)
